Fewer inactive variants are shown than the library holds.
Key:
[1] = tested on: biotinyl-Met-oxazolone; assay: self-aminoacylation, catalytic enhancement (BMO) (fold over background); higher = more active; k-Seq, kA / k0A0; sequences stand for … in GGGAAUGGAUCCACAUCUACGAAUUC…UUCACUGCAGACUUGACGAAGCUG
In short: (§1)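 The uncatalyzed rate is the low-activity peak of a bimodal Gaussian fit, and catalytic enhancement is median kA divided by it. The kA values came from pseudo-first-order fits, with 1000 bootstraps, of per-sequence fraction reacted measured by streptavidin capture, triplicate qPCR and Illumina sequencing. Mutagenized RNA pools with a 21-nt variable region (0.43 μM) were reacted with each biotinyl-aminoacyl-oxazolone at 2–1250 μM in 50 μL HEPES/NaCl/KCl/MgCl2/CaCl2 buffer with 5% acetonitrile, pH 6.9–7.0, for 90 minutes at room temperature.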

[2] = tested on: biotinyl-Phe-oxazolone; assay: self-aminoacylation, catalytic enhancement (BFO) (fold over background); higher = more active; k-Seq, kA / k0A0; sequences stand for … in GGGAAUGGAUCCACAUCUACGAAUUC…UUCACUGCAGACUUGACGAAGCUG
In short: as §1

[3] = tested on: biotinyl-Leu-oxazolone; assay: self-aminoacylation, catalytic enhancement (BLO) (fold over background); higher = more active; k-Seq, kA / k0A0; sequences stand for … in GGGAAUGGAUCCACAUCUACGAAUUC…UUCACUGCAGACUUGACGAAGCUG
In short: as §1

[4] = tested on: biotinyl-Ile-oxazolone; assay: self-aminoacylation, catalytic enhancement (BIO) (fold over background); higher = more active; k-Seq, kA / k0A0; sequences stand for … in GGGAAUGGAUCCACAUCUACGAAUUC…UUCACUGCAGACUUGACGAAGCUG
In short: as §1

[5] = tested on: biotinyl-Trp-oxazolone; assay: self-aminoacylation, catalytic enhancement (BWO) (fold over background); higher = more active; k-Seq, kA / k0A0; sequences stand for … in GGGAAUGGAUCCACAUCUACGAAUUC…UUCACUGCAGACUUGACGAAGCUG
In short: as §1

[6] = tested on: biotinyl-Val-oxazolone; assay: self-aminoacylation, catalytic enhancement (BVO) (fold over background); higher = more active; k-Seq, kA / k0A0; sequences stand for … in GGGAAUGGAUCCACAUCUACGAAUUC…UUCACUGCAGACUUGACGAAGCUG
In short: as §1

In the case of “AUUACCCUGGUCCCCGAGUGA [Fam2.1 aminoacylation ribozyme variant]”, the self-aminoacylation [1] is reported as 15.2, the self-aminoacylation [2] is reported as 113 and the self-aminoacylation [3] is reported as 15.6. For the same sequence, the self-aminoacylation [4] was 6.57, the self-aminoacylation [5] was 17.3 and the self-aminoacylation [6] was 8.55.
For “AUCCACCUGGGUCAUCGGGUG [Fam2.2 aminoacylation ribozyme variant]”, the self-aminoacylation [1] was 9.47, the self-aminoacylation [2] was 41.8 and the self-aminoacylation [3] was 8.16. It also gave a self-aminoacylation [4] of 4.48, a self-aminoacylation [5] of 7.25 and a self-aminoacylation [6] of 6.05.
In the case of “CUACUUGGAACAAUCGGUCUG [Fam1A.1 aminoacylation ribozyme variant]”, the self-aminoacylation [1] is reported as 0.904, the self-aminoacylation [2] is reported as 0.848 and the self-aminoacylation [3] is reported as 0.788. For the same sequence, the self-aminoacylation [4] was 0.831, the self-aminoacylation [5] was 0.642 and the self-aminoacylation [6] was 0.833.
“AUUACCCGGGUCAUCGGGUGA [Fam2.1 aminoacylation ribozyme variant]” gave a self-aminoacylation [1] of 13.9, a self-aminoacylation [2] of 132 and a self-aminoacylation [3] of 14.7. For the same sequence, the self-aminoacylation [4] was 6.62, the self-aminoacylation [5] was 12.4 and the self-aminoacylation [6] was 7.9.
“AAGUUUGCUAAUAGCCGCGAG [Fam3.1 aminoacylation ribozyme variant]” showed a self-aminoacylation [1] of 0.916, a self-aminoacylation [2] of 1.6 and a self-aminoacylation [3] of 2.04. The self-aminoacylation [4] was 1.05, the self-aminoacylation [5] was 1.01 and the self-aminoacylation [6] was 1.63.

Reference: the supplement of paper PMC9233669
